Patent publication US20220017591A1 (AstraZeneca / MedImmune, published 2022)

T1: mouse RXFP1 (mouse, UniProt Q6R6I7 1-758)
T1 sequence (looked up): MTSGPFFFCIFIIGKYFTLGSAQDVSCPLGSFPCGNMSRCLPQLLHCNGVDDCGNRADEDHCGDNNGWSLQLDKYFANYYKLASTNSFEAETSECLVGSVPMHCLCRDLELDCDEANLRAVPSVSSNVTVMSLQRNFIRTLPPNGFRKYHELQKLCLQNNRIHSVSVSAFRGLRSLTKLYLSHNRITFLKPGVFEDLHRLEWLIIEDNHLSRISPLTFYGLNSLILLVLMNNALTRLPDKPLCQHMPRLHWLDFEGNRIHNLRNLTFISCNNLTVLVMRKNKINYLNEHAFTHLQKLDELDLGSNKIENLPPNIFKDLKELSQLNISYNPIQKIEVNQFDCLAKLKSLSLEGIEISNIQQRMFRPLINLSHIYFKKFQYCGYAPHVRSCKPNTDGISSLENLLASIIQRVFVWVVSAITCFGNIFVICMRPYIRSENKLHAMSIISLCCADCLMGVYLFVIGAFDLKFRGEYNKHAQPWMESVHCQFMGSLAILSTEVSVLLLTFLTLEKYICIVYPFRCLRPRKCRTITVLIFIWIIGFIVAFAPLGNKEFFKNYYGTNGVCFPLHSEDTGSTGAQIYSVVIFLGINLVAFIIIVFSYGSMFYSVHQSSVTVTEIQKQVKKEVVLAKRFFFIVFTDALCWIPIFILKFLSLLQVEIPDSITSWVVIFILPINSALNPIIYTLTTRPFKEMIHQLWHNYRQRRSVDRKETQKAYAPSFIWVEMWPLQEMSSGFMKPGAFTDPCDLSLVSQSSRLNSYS

T2: human RXFP1 (human, UniProt Q9HBX9 1-757)
T2 sequence (looked up): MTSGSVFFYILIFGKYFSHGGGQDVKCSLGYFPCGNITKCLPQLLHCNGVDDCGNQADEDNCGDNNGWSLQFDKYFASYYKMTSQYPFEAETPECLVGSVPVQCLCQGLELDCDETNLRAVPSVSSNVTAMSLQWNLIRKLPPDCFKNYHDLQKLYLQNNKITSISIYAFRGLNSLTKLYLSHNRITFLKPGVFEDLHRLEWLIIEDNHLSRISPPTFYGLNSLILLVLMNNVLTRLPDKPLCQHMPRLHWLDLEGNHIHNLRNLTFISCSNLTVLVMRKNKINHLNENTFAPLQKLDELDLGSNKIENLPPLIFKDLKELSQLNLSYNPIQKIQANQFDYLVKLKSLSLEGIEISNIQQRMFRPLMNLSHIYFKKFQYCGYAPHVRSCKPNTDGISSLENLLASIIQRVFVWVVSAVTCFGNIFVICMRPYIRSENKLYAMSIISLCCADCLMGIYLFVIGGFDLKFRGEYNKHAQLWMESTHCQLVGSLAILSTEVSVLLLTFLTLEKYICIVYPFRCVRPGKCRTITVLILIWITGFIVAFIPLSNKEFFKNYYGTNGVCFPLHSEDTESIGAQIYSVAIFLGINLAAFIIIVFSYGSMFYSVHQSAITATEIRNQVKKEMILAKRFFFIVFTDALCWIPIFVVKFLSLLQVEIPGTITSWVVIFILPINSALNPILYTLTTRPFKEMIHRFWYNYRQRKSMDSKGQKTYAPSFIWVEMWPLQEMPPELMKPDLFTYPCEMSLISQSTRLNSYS

B1: RELAX0054 (Fc fusion)
chain 1: DKTHTCPPCPAPEFEGGPSVFLFPPKPKDTLMISRTPEVTCVVVDVSHEDPEVKFNWYVDGVEVHNAKTKPREEQYNSTYRVVSVLTVLHQDWLNGKEYKCKVSNKALPASIEKTISKAKGQPREPQVCTLPPSREEMTKNQVSLSCAVKGFYPSDIAVEWESNGQPENNYKTTPPVLDSDGSFFLVSKLTVDKSRWQQGNVFSCSVMHEALHNHYTQKSLSLSPGAAPAPAPAPAPAPAGSQLYSALANKCCHVGCTKRSLARFC
chain 2: DKTHTCPPCPAPEFEGGPSVFLFPPKPKDTLMISRTPEVTCVVVDVSHEDPEVKFNWYVDGVEVHNAKTKPREEQYNSTYRVVSVLTVLHQDWLNGKEYKCKVSNKALPASIEKTISKAKGQPREPQVYTLPPCREEMTKNQVSLWCLVKGFYPSDIAVEWESNGQPENNYKTTPPVLDSDGSFFLYSKLTVDKSRWQQGNVFSCSVMHEALHNHYTQKSLSLSPGAAPAPAPAPAPAPAGSSWMEEVIKLCGRELVRAQIAICGMSTWS
B2: RELAX0056 (Fc fusion)
chain 1: DKTHTCPPCPAPEFEGGPSVFLFPPKPKDTLMISRTPEVTCVVVDVSHEDPEVKFNWYVDGVEVHNAKTKPREEQYNSTYRVVSVLTVLHQDWLNGKEYKCKVSNKALPASIEKTISKAKGQPREPQVYTLPPCREEMTKNQVSLWCLVKGFYPSDIAVEWESNGQPENNYKTTPPVLDSDGSFFLYSKLTVDKSRWQQGNVFSCSVMHEALHNHYTQKSLSLSPGAPAPAPAPAPAPAPAPAPAGSQLYSALANKCCHVGCTKRSLARFC
chain 2: DKTHTCPPCPAPEFEGGPSVFLFPPKPKDTLMISRTPEVTCVVVDVSHEDPEVKFNWYVDGVEVHNAKTKPREEQYNSTYRVVSVLTVLHQDWLNGKEYKCKVSNKALPASIEKTISKAKGQPREPQVCTLPPSREEMTKNQVSLSCAVKGFYPSDIAVEWESNGQPENNYKTTPPVLDSDGSFFLVSKLTVDKSRWQQGNVFSCSVMHEALHNHYTQKSLSLSPGAPAPAPAPAPAPAPAPAPAGSSWMEEVIKLCGRELVRAQIAICGMSTWS
B3: RELAX0085 (Fc fusion)
chain 1: DKTHTCPPCPAPEFEGGPSVFLFPPKPKDTLMISRTPEVTCVVVDVSHEDPEVKFNWYVDGVEVHNAKTKPREEQYNSTYRVVSVLTVLHQDWLNGKEYKCKVSNKALPASIEKTISKAKGQPREPQVYTLPPCREEMTKNQVSLWCLVKGFYPSDIAVEWESNGQPENNYKTTPPVLDSDGSFFLYSKLTVDKSRWQQGNVFSCSVMHEALHNHYTQKSLSLSPGGGGGSGGGGSGGGGSGGGGGSQLYSALANKCCHVGCTKRSLARFC
chain 2: B2 chain 2
B4: RELAX0084 (Fc fusion)
chain 1: B2 chain 1
chain 2: DKTHTCPPCPAPEFEGGPSVFLFPPKPKDTLMISRTPEVTCVVVDVSHEDPEVKFNWYVDGVEVHNAKTKPREEQYNSTYRVVSVLTVLHQDWLNGKEYKCKVSNKALPASIEKTISKAKGQPREPQVCTLPPSREEMTKNQVSLSCAVKGFYPSDIAVEWESNGQPENNYKTTPPVLDSDGSFFLVSKLTVDKSRWQQGNVFSCSVMHEALHNHYTQKSLSLSPGGGGGSGGGGSGGGGSGGGGGSSWMEEVIKLCGRELVRAQIAICGMSTWS
B5: RELAX0086 (Fc fusion)
chain 1: DKTHTCPPCPAPEFEGGPSVFLFPPKPKDTLMISRTPEVTCVVVDVSHEDPEVKFNWYVDGVEVHNAKTKPREEQYNSTYRVVSVLTVLHQDWLNGKEYKCKVSNKALPASIEKTISKAKGQPREPQVYTLPPCREEMTKNQVSLWCLVKGFYPSDIAVEWESNGQPENNYKTTPPVLDSDGSFFLYSKLTVDKSRWQQGNVFSCSVMHEALHNHYTQKSLSLSPGGGGGSGGGGSGGGGGSQLYSALANKCCHVGCTKRSLARFC
chain 2: B4 chain 2
B6: RELAX0055 (Fc fusion)
chain 1: DKTHTCPPCPAPEFEGGPSVFLFPPKPKDTLMISRTPEVTCVVVDVSHEDPEVKFNWYVDGVEVHNAKTKPREEQYNSTYRVVSVLTVLHQDWLNGKEYKCKVSNKALPASIEKTISKAKGQPREPQVYTLPPCREEMTKNQVSLWCLVKGFYPSDIAVEWESNGQPENNYKTTPPVLDSDGSFFLYSKLTVDKSRWQQGNVFSCSVMHEALHNHYTQKSLSLSPGAPAPAPAPAGSQLYSALANKCCHVGCTKRSLARFC
chain 2: DKTHTCPPCPAPEFEGGPSVFLFPPKPKDTLMISRTPEVTCVVVDVSHEDPEVKFNWYVDGVEVHNAKTKPREEQYNSTYRVVSVLTVLHQDWLNGKEYKCKVSNKALPASIEKTISKAKGQPREPQVCTLPPSREEMTKNQVSLSCAVKGFYPSDIAVEWESNGQPENNYKTTPPVLDSDGSFFLVSKLTVDKSRWQQGNVFSCSVMHEALHNHYTQKSLSLSPGAPAPAPAPAGSSWMEEVIKLCGRELVRAQIAICGMSTWS
B7: RELAX0087 (Fc fusion)
chain 1: B3 chain 1
chain 2: DKTHTCPPCPAPEFEGGPSVFLFPPKPKDTLMISRTPEVTCVVVDVSHEDPEVKFNWYVDGVEVHNAKTKPREEQYNSTYRVVSVLTVLHQDWLNGKEYKCKVSNKALPASIEKTISKAKGQPREPQVCTLPPSREEMTKNQVSLSCAVKGFYPSDIAVEWESNGQPENNYKTTPPVLDSDGSFFLVSKLTVDKSRWQQGNVFSCSVMHEALHNHYTQKSLSLSPGGGGGSGGGGSGGGGGSSWMEEVIKLCGRELVRAQIAICGMSTWS

Biological target: T1, mouse RXFP1
Assay: cell-based or functional assay

Question: With B1 as the binder, how does the “EC50 mRXFP1 (M), cAMP assay” value read?
Answer: 1.59e-11 M

Question: With B2 as the binder, how does the “EC50 mRXFP1 (M), cAMP assay” value read?
Answer: 3.27e-11 M

Question: With B3 as the binder, how does the “EC50 mRXFP1 (M), cAMP assay” value read?
Answer: 3.09e-11 M

Question: B4 was tested. Which “EC50 mRXFP1 (M), cAMP assay” value did it give?
Answer: 3.48e-11 M

Question: Which “EC50 mRXFP1 (M), cAMP assay” value does the source give for B5 here?
Answer: 2.68e-11 M

Question: For B6, which “EC50 mRXFP1 (M), cAMP assay” value is on record?
Answer: 1.51e-11 M

Question: How did the “EC50 mRXFP1 (M), cAMP assay” value turn out when B7 was run?
Answer: 3.48e-11 M

Biological target: human RXFP2 (human, UniProt Q8WXD0 1-754)
Assay: cell-based or functional assay

Chain of human RXFP2 (Q8WXD0 whole entry): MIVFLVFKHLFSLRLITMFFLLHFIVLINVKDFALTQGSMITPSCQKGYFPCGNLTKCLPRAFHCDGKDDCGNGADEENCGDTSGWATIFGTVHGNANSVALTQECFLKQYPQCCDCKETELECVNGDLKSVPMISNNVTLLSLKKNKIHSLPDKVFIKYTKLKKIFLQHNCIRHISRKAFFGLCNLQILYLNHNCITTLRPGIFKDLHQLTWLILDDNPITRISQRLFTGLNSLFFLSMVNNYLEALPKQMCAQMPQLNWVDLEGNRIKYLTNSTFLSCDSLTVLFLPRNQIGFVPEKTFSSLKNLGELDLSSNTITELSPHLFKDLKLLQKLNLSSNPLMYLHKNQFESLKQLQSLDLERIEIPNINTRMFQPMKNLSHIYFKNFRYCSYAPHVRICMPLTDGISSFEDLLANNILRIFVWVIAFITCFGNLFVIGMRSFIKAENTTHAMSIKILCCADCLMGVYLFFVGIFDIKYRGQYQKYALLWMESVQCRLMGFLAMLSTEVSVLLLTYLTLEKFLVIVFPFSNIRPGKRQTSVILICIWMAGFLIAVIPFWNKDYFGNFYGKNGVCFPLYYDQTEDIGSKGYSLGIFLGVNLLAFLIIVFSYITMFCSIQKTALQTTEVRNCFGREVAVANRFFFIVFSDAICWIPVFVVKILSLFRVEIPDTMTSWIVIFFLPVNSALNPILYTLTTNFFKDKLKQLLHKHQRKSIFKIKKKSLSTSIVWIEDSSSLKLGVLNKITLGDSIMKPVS

Question: B1 was tested. Which “EC50 hRXFP2 (M), cAMP assay” value did it give?
Answer: 1.53e-08 M

Question: B2 was tested. Which “EC50 hRXFP2 (M), cAMP assay” value did it give?
Answer: 6.48e-08 M

Question: B3 was tested. Which “EC50 hRXFP2 (M), cAMP assay” value did it give?
Answer: 4.67e-08 M

Question: With B4 as the binder, how does the “EC50 hRXFP2 (M), cAMP assay” value read?
Answer: 1.2e-08 M

Question: Which “EC50 hRXFP2 (M), cAMP assay” value does the source give for B5 here?
Answer: 4.88e-08 M

Question: Which “EC50 hRXFP2 (M), cAMP assay” value does the source give for B6 here?
Answer: 3.39e-08 M

Question: With B7 as the binder, how does the “EC50 hRXFP2 (M), cAMP assay” value read?
Answer: 3.63e-08 M

Biological target: T2, human RXFP1
Assay: cell-based or functional assay

Question: For B1, which “EC50 hRXFP1 (M), cAMP assay” value is on record?
Answer: 2.89e-11 M

Question: How did the “EC50 hRXFP1 (M), cAMP assay” value turn out when B2 was run?
Answer: 3.87e-11 M

Question: How did the “EC50 hRXFP1 (M), cAMP assay” value turn out when B3 was run?
Answer: 6.37e-11 M

Question: For B4, which “EC50 hRXFP1 (M), cAMP assay” value is on record?
Answer: 5.34e-11 M

Question: How did the “EC50 hRXFP1 (M), cAMP assay” value turn out when B5 was run?
Answer: 4.49e-11 M

Question: With B6 as the binder, how does the “EC50 hRXFP1 (M), cAMP assay” value read?
Answer: 1.88e-11 M

Question: B7 was tested. Which “EC50 hRXFP1 (M), cAMP assay” value did it give?
Answer: 4.89e-11 M
